The labels stand for the following.
B1: Azoarcus group I ribozyme (parent)
chain: GUGCCUUGCGCCGGGAAACCACGCAAGGGAUGGUGUCAAAUUCGGCGAAACCUAAGCGCCCGCCCGGGCGUAUGGCAACGCCGAGCCAAGCUUCGGCGCCUGCGCCGAUGAAGGUGUAGAGACUAGACGGCACCCACCUAAGGCAAACGCUAUGGUGAAGGCAUAGUCCAGGGAGUGGCGAAAGUCACACAAACCGG

Variants of B1 are the subject of this series. The series is described as follows: reverse-splicing fitness (ratio to wild type); higher = more active; in vitro selection; Mg2+ level not given. A digest of the protocol: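 An in vitro group I ribozyme library with randomized positions was T7-transcribed and gel-purified. In triplicate, 10 pmol RNA in EPPS pH 7.5 was reacted with 50 pmoles of a 30-nt RNA substrate for 1 h at 37 °C across several added MgCl2 levels (1–48 mM), then stopped with EDTA. Products were reverse transcribed from a substrate-complementary primer, PCR-amplified and sequenced (HiSeq 4000). Fitness is a variant's read proportion after selection over that before, normalised to wild type.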
C82U A111U A120U A145C C150G C169A U176G: the reverse-splicing fitness came to 0.00281.

On to C82G A111C A120G A145U C150G C169G U176G, for which the reverse-splicing fitness turned out to be 0.00512. To C82U A111U A145U C169G U176A belongs 0.0101; to C82A A145G C150A C169G U176C, 0.0281; to A145C C150A C169A U176G, 0.00533.

On to C82A A111C A120U A145U C150A C169A, for which the reverse-splicing fitness came to 0.00298. To A111U A120G U176C belongs 0.0497.

With C82A A120G A145C C150G U176A, the reverse-splicing fitness came out at 0.00476.

With C82A A111U A120G A145G C150G C169G, the reverse-splicing fitness turned out to be 0.00797.

With A111G A145U C150G C169U U176G, the reverse-splicing fitness is 0.00488.

Take C82G A111U A120C C150U C169U: the reverse-splicing fitness was found to be 0.0125.

With C82A A111C A120U A145C C150A C169G U176A, the reverse-splicing fitness was 0.0036. To C82G A111C A145G C150A C169U belongs 0.00998; to A120C A145G C150A C169G U176A, 0.017; to C82A A111G A145G C150A U176G, 0.0122. Turning to A111G A145U C169A, the reverse-splicing fitness turned out to be 0.0537. On to C82A A120G A145U C169G U176A, for which the reverse-splicing fitness stood at 0.0118. With C82G A111C A120C A145C C169U the figure was 0.0151; with C82G A111C A120U A145C C150G U176A, 0.00364; with C82A A111C A120C A145U C150U C169G, 0.00764.

Regarding C82G A111G A120G A145C C150A C169U U176C, the reverse-splicing fitness is 0.0128. For A120C C150U C169U, the reverse-splicing fitness stood at 0.345. For C82A A111C A120C C150U U176C, the reverse-splicing fitness is 0.0187.

In the case of C82G A111G A120G C150A U176G, the reverse-splicing fitness came out at 0.0109.

C82U A111G A145C C150G C169A: the reverse-splicing fitness came to 0.00744. To C82U A111U A120G A145U C150G C169U U176G belongs 0.00463; to A111C A120G A145U C150G U176A, 0.00983. With A111U A145U C169A U176C the figure was 0.0115. C82G A111U A120U A145U C150U C169A: the reverse-splicing fitness stood at 0.00323. To C82U A120C A145C C150A U176C belongs 0.00962; to A111C C150G C169G U176A, 0.00634.

As for A120G A145U C150U C169G U176G, the reverse-splicing fitness stood at 0.00892. Take C82G A111G A120C A145U C150G C169A U176G: the reverse-splicing fitness was determined as 0.00589. With C82U A111U A145U C150A C169A the figure was 0.0089; with C82U A111C A145C C169G U176C, 0.0207; with C82G A145G C150U C169U, 0.0159. To C82U A111G A120U A145C C150A C169A belongs 0.00199; to A111U A145U C150U C169G, 0.0415; to C82U A111C A120U A145U C150G, 0.00613. With C82A A111C A120C C169U U176A the figure was 0.0152; with C82G C150A C169U U176A, 0.0154; with A111G A120C A145G C150A C169G U176A, 0.0231. Regarding C82G A111G A145C C169G U176C, the reverse-splicing fitness is 0.0131. With C82U A111G C150A C169G the figure was 0.00918; with C82G A111C A120C A145U C169A U176A, 0.0143; with C82A A111G A120U A145C C150A C169U U176A, 0.00351. With C82U A120C C169U U176A the figure was 0.0188; with C82A A111U A145G C169U, 0.0129; with C82U A111U C150G U176A, 0.00833.

Consider C82A A120U A145C C150G U176G, for which the reverse-splicing fitness stood at 0.00275. To A111C A120U A145G C150G C169U U176A belongs 0.00885; to C82A A120C A145U C150G C169A U176C, 0.0131; to A111C A120C A145C C150A C169U U176A, 0.0155. To C82A A111U C150A C169U belongs 0.0125; to C82G A111C A120U C150A C169G U176G, 0.0024; to A120G A145C C169A U176C, 0.157. Take C82U A111C A120C C169A U176A: the reverse-splicing fitness was 0.016.

In the case of C82U A111U A120C C150U C169U U176C, the reverse-splicing fitness is 0.0157.

As to C82G A111U A120C C169A U176C, the reverse-splicing fitness worked out at 0.0224. To A111U A120C C150G C169U U176G belongs 0.00475; to C82G A111C A145U C169A U176C, 0.0153. In the case of C82G A111U A120C C150G, the reverse-splicing fitness was found to be 0.00875. To C82A A120C A145G C169A U176C belongs 0.034; to C82A A111U A120G A145C C150G C169G U176A, 0.00863; to C82U A120C C150G C169U U176A, 0.00844.

Turning to C82A A111C A120U A145G C150A C169G U176G, the reverse-splicing fitness was found to be 0.00261. For C82A A111U A120U C150G C169G, the reverse-splicing fitness was 0.00683. For C82A A111U A120U C150U C169U U176C, the reverse-splicing fitness stood at 0.00448.

C82U A111U A120U A145C C169G U176C: the reverse-splicing fitness is 0.00221. To C82G A111U A120G A145C C150G C169G belongs 0.00796.

As for C82A A111G A120G U176C, the reverse-splicing fitness was determined as 0.0182. With A111C A120G A145C C150U C169A U176A the figure was 0.0104; with C82U A111G A145G C150G, 0.0407. With C82A A111U A120G A145U C150G C169A the figure was 0.00884; with C82A A111U A120C A145C C150G C169A U176C, 0.011; with A111G A120U A145U C150G C169U U176A, 0.00269. Consider C82G A111U C150U U176G, for which the reverse-splicing fitness is 0.0348. Regarding C82G A111U A120U A145U U176C, the reverse-splicing fitness is 0.0192.

On to C82U A111U A120C C150U C169G U176A, for which the reverse-splicing fitness came to 0.0138. To C82U A111U A120U A145G C150A C169G belongs 0.00478; to C82A A111G A120C A145U C169G U176A, 0.0135; to C82G A111U A120G C150A C169U U176C, 0.0215. With C82U A111G A145U C150G C169U U176G the figure was 0.00472.
